Measured values taken from paper PMC8062024.
Read-outs that look alike come from different tables or passages of the source.

Substance	enzymatic_activity (N-glycosylation at N424)	enzymatic_activity (N-glycosylation at N79)	expression_or_secretion (N-glycosylation at N79)	enzymatic_activity (N-glycosylation at N170)	expression_or_secretion (N-glycosylation at N170)	expression_or_secretion (N-glycosylation at N424)
PmCOX (Penaeus monodon cyclooxygenase): N424Q	abolishes, secreted PGE2 2.79 nM vs 7.40 nM wild type (empty vector 2.68 nM)	–	–	–	–	–
PmCOX (Penaeus monodon cyclooxygenase): N79Q/N170Q/N424Q triple mutant	abolishes, secreted PGE2 2.23 nM vs 7.40 nM wild type (empty vector 2.68 nM)	abolishes, secreted PGE2 2.23 nM vs 7.40 nM wild type (empty vector 2.68 nM)	decreases	abolishes, secreted PGE2 2.23 nM vs 7.40 nM wild type (empty vector 2.68 nM)	decreases	decreases
PmCOX (Penaeus monodon cyclooxygenase): N79Q	–	no change, secreted PGE2 8.65 nM vs 7.40 nM wild type (40 uM ARA)	no change	–	–	–
PmCOX (Penaeus monodon cyclooxygenase): N170Q	–	–	–	abolishes, secreted PGE2 2.45 nM vs 7.40 nM wild type (empty vector 2.68 nM)	–	–
